Data as given in the DeepSol protein solubility set.

Test: soluble on expression in E. coli; label from the status in PepcDB or PDB records

Row | Sequence | soluble on expression in E. coli
1 | SGEIKVSPDYNWFRSTVPLKKIIVDDDDSKIWSLYDAGPRSIRCPLIFLPPVSGTADVFFQQILALTGWGYRVIALQYPVYWDHLEFCDGFRKLLDHLQLDKVHLFGASLGGFLAQKFAEYTHKSPRVHSLILCNAFSDTSIFNQTWTANSFWLMPAFMLKKIVLGNFSSGPVDPMMADAIDFMVDRLESLGQSELASRLTLNCQNSYVEPHKIRDIPVTIMDIHLLQFHGTKYAAIDPSVVSAEELDVQKGQLDLSQEEP | soluble
2 | MPRLFLTSDLDSFPVTPQGCSVTLACGVRLQFPAGATATPITIRYRLLLPEPGLVPLGPHDALLSHVLELQPHGVAFQQDVGLWLLFTPPQARRCREVVVRTRNDNSWGDLETYLEEEAPQRLWAHCQVPHFSWFLVVSRPVSNACLVPPEGTLLCSSGHPGVKVIFPPGATEEPRRVSMQVVRMAGRELQALLGEPEAAVSPLLCLSQSGPPSFLQPVTVQLPLPSGITGLSLDRSRLHLLYWAPPAATWDDITAQVVLELTHLYARFQVTHFSWYWLWYTTKNCVGGLARKAWERLRLHRVNLIALQRRRDPEQVLLQCLPRNKVDATLRRLLERYRGPEPSDTVEMFEGEEFFAAFERGIDVDADRPDCVEGRICFVFYSHLKNVKEVYVTTTLDREAQAVRGQVSFYRGAVPVRVPEEAEAARQRKGADALWMATLPIKLPRLRGSEGPRRGAGLSLAPLNLGDAETGFLTQSNLLSVAGRLGLDWPAVALHLGVSYREVQRIRHEFRDDLDEQIRHMLFSWAERQAGQPGAVGLLVQALEQSDRQDVAEEVRAVLELGRRKYQDSIRRMGLAPKDPALPGSSAPQPPEPAQA | soluble
3 | MGSDKIHHHHHHMMDMTTRPTLQHFLSDTKHGPYVSLYMSWPENTSVEALRLRFKNMVKHTKSVMTETYPETDFSAYAAELEPYEQDPTFWQTCETNGFGMLTNGAQTYVTPMYEAVDEVAMVTDMPQILPLMLDEATATDFDILALNADSIQMYHNHGHQVRPISLPDDAPQTLKGTLGTEIRGGETNSVSQGGGRVTHHGHNEKSAEKASDQRRFYQAVDQYVLANHSNPHKMPLVLMGLAENVAVFREISKNHHLLPKLAVVKSPANLDFVELDDLLTPVRETLRDRRRQNFAEIIENARGNDSYTDHLEEVVQAAVAGRIAILFVQAGARIHARLEGTQIERDSINAQHANLLNDLADIVLSHGGQVELLTEAYLPVEVGAMVRYA | not soluble
4 | MEYLFLRRKKTSSTSVRQKTLLYRAAGREWTARFSSLSDVRPADSLIYKGILYQLEIRRAFLDSSLSLKKLSMMLETNQTYLSNAVNRYFGCHLKELLNRYRVEYAKELLRNGGCPLGEVPSRSGFGSKSPFYLAFVRQTGMTPKRYAARERNLVNLEIENEVLL | not soluble
5 | MNFTDTHCHLADPALRENLPHILTAARKVGVKRFIVPATRPQDWQDVADLAEMPSEHGQIRIALGIHPWFSDGIAERDFVRLETMLAHYPQAWVGEIGLDFYDKTQTSQQRERQIQVFVRQLEIAQTLRRRVIIHNLKATADIAAAVKQTGFAQGGIVHAFSGSAEEARVLTKLGFKIGIGSLLLNPNARKVRDTLKALNDGDFVLETDSPFMLKKEINTPANIPGIAKIAAEIRGTCVEEIAKVTERNADALLGR | not soluble
6 | MAEGERQPPPDSSEEAPPATQNFIIPKKEIHTVPDMGKWKRSQAYADYIGFILTLNEGVKGKKLTFEYRVSEAIEKLVALLNTLDRWIDETPPVDQPSRFGNKAYRTWYAKLDEEAENLVATVVPTHLAAAVPEVAVYLKESVGNSTRIDYGTGHEAAFAAFLCCLCKIGVLRVDDQIAIVFKVFNRYLEVMRKLQKTYRMEPAGSQGVWGLDDFQFLPFIWGSSQLIDHPYLEPRHFVDEKAVNENHKDYMFLECILFITEMKTGPFAEHSNQLWNISAVPSWSKVNQGLIRMYKAECLEKFPVIQHFKFGSLLPIHPVTSG | soluble
7 | YNPIDNIQNATNRRNTVLANMVDDEKLSQADADSAAGVDMASRLVDTYQGTGDDYRYPSYFDAVIEEATKTYGLSEDEIVKNGY | not soluble
8 | AVCDTPHERLTILYTKILDLLKHFPKHAAYRKYTEQITSEKLELVKLEPDVKKLENLLQGG | soluble
9 | MRGSHHHHHHTDPALRANITPFPTLSPATIDAINVIGQWLAQDDFSGEVPYQADCVILAGNAVMPTIDAACKIARDQQIPLLISGGIGHSTTFLYSAIAQHPHYNTIRTTGRAEATILADIAHQFWHIPHEKIWIEDQSTNCGENARFSIALLNQAVERVHTAIVVQDPTMQRRTMATFRRMTGDNPDAPRWLSYPGFVPQLGNNADSVIFINQLQGLWPVERYLSLLTGELPRLRDDSDGYGPRGRDFIVHVDFPAEVIHAWQTLKHDAVLIEAMESRSLRGLCGR | soluble
10 | SLRLKISLLSPADSFEIDLNHSYHLASAIYRAIERADPSLSIELHKPDVPKFFTFSKLFIPKRKFRIEGEKMVSDCEEAYFFFSTLRNEVAASLVEGLLSKPEIRICGVDFIVSEVSVLPEREVKGREKFVTLSPIYASTSVGENGRRRIFDLYPKDSKFYEVILQNLVKKYVLYYKSAPENLDFHMKPLNVKAKRIRLKDTFHRCVEMVFKAEGSPELLDVGYKAGFGSKNSMGFGMVKVV | soluble
11 | MHEPMKTLKNIHAEIRICQKFPKSTVQKRFSEFEELIKAASKNARNWKPISSVELFQGDSSLNELFEKLVIGTCELRDGELFENVNDLTINPSNIHVYKLHKDGPLSQNIGDDDGDESIIGSQLWQLPCVEFDSIWENLIYDSNLKNEVMSYVAALARLSEKHVNTKIINVNRLILLTGPPGTGKTSLCKGLAQHLSIRMNDKYSKSVMLEINSHSLFSKWFSESGKLVQKMFDQIDELAEDEKCMVFVLIDEVESLGMCRESSSSRSEPSDAIRAVNALLTQIDRIRRRDNVLILCTSNLESTLDKALVDRADIVKNVGQPSDFARYSMLKSSIMELARIGVVIDNEVHTDYWPQDICDTKAPRNEFTEILFKIAQEARGLSGRAISMLPTLVYSKSPEETITLPNCMNLFLEAVKERLSRNN | not soluble
12 | MRDYVEIGMGREARRTYHLDSVAIVPSRRTRSSKDVDTTWHIDAYTFDIPFMSHPTDALATPDFVIEMDKQGGLGVINAEGLWGRHADLDAAIQEVITAYGDDELDLGSCNRATKKLQELHAAALDTELLVERIAQVRSSGAT | not soluble
13 | MSLKYEKIAFFRFFGRLNDFFRNSERIKTHRFTGFQTVKDRIEALGVPHVEVSLITLNGKPVGFDHMVEDGELFFVYPEFQNIEIPEDWLVTPRYIGEPRFVLDIHLGKLARLLRMLGFEAVFGEESDEKLCWMAVKKKAILLSRDTGLLKRKELVFGYYVRNTDPKEQLVEVVERYDLKKWMKPFTRCIECGVELEEVPKEAVKNRVPPKVYGFFNEFARCPVCGRIYWKGSHYDHMVEFIKSNINKGEGHHHHHH | soluble
14 | MGSDKIHHHHHHMFNEDTKFASPYEINVLNELTGKNFQEDDLILLEKLSGMDYRKRVYVSEDQIGTLEFDLLDLTWKFIPSPLYYMIEDPKISLKYTKKRLKGKYIKEELLENPEELNEALKDNFEYIGVKIGDFLGVGVRKEDRVKVKDLSRKKELDFQKIADYLEYNKEYLDEMVENSIEILQDAVEKYKRKGYAINASFSGGKDSAVCTLISKEVIPDLDVVFIDTGLEYPETLNYVKDFVDKYDINLDTVDGDNFWDNLEKEGIPTKDNRWCNSACKLMPLKRYLKKKYGNKKVLTIDGSRKYESFTRANLDYERRSGFIDFQTNVFPILDWNSIDIWSYIYSKDIPYNPMYDKGFERIGCYLCPSALNSEFLRVKELHPDYFERWVKYLKKYFPESEVLRGFWRWDELPPKMVELEENMGVDIDKKKRLKRITQL | not soluble
15 | MDVFLMIRRHKTTIFTDAKESSTVFELKRIVEGILKRPPDEQRLYKDDQLLDDGKTLGECGFTSQTARPQAPATVGLAFRADDTFEALCIEPFSSPPELPDVMKPQDSGSSANEQAVQ | soluble
16 | MAHHHHHHMHRQTAALQGSTVPAFCELLHSRGEAWLGLLGAALALPVHNATADGPSPNSFATPPSCSPSDAPALSEACSRLLSTYFIAAKAQCVEGADASMMKTLVKLTLAHTEWRTRLAMALPQRTGHPTAASSPTRAVTALIDAVAAVGLCDATLHFFTAKTLLGECVFRLLESEAWPTWAPEYCSAPLPQQAEHGVSGAFVHGEGGEPPDWQRLYAEVSHRTRLVPASMHTTEPPSPAFSILQLAQDLQDHLERTVQQSHLALSFTEGGV | not soluble
17 | MGSDKIHHHHHHMLTLRQALLALFHQFETLFHYLEHLCRHRSAARPGRSSFLHSSVEIQVKETLIRNLWYVAGTSDEFAPGQLVGQTIVGLPLVLWRPEAGGEVVAFDGRCCHKRMPLAAGKLLADGTLECAYHGLCFDSAGKCVKIPSQPGRAIPSRAKLRPYPIVEQDGMVWIWMGDDANPALRPPRIPELASPEWEAIRVQNAEVPTNYLLLIENLLDISHFYPLHDGNIGDIANSEIPVEFSHEGVQGNRSVTSVRKAESYRHPPYLEDFFGYELVDRHHSHSMISPAAIRVDLRCAPPGRLETEDERGYILTHLITPIDERHHRWRVIAACRAGHRWPADPSVSTVARVAEKFPGVIAQDLWALTEQQKMLDLADTHYLGEMHLRADTGILKAREIVRDMVAAEAQPASQAVAA | not soluble
18 | MGFGDIQTQPGTYSMHHMTTSTRITSRFLKNKTTNMKRLGVDPPCGVPEPKEDVLLAVSCDAFAFGQDDTNNDRITVEWTNTPDGAAKQFRREWF | not soluble
19 | MRFFKHYAPSMIAKHISRLFNGKIHIHGIGEFRFKDGQLVAPTEAEREHYKMVKEINSEITRLKMAYLEHHHHHH | not soluble
20 | MNSKKVLFIIFICALTVTGCDTQEQTTIDSGLTLIRATQTLDSLYANYSVSGTCLLRENYPSNVGNYTATYLASEEQKEIPNQYSYLWPYSGTFSAVNALCAATGDESYKTLLDNKVLRGLEKYLDISRSPAGYASYINTASQSDRFYDDNIWLGIDFTDAYLNTKEEKYLKKAQLIWKFIESGADDKLGGGIYWCEQKKVSKNTCSNAPASVFALKMFKAIRDSSYLIKGQELYEWTKKRLQDSTDYLYFDNISLDGKIDKSKYAYNSGQMMQAATLLYQLTGRSHFLKDAQNIAKACYNYFFINFIPEEGEPFKLLKKGDVWFTAVMLRGFIELYQTDHNKTYINSFNQNMDYAWEHVRDEKGLFDIDFSGRTHDDRKWLLTQAAMVEMYARLAVTKLEHHHHHH | not soluble
21 | MGLIKAATSSVGGGLADQWLEVIEPDNMGDTTVMTKGVFVRKDDKRGSNRKGTDDVLTDGSVVHVYPNMMMLLVDGGKIIDYTAEEGYYTVKNDSAPSMFNGSLKDAIAETFSRFKFGGVTPQKQQVFYINLQEIKGIKFGTPAPLNYFDNFYNAELFLRAHGNYSIKITDPLLFYTNAIPKNQTQVDINDINEQYLAEFITALQAAINQMSADGQRISYVPSKSVELSKYMQTALDEDWRTNRGMEIVSVAVASISYTDDSTKLINMRNEGAMLSDPGVREGYVQGSLARGMEAAGKNEGGAMSGFMGVGMGMNANGNYFAQASQTNQQQMQEKQNQQNAQGATDTWTCPQCGTENTGKFCSNCGTPKPTNEKPKLEMKCSECSEIVDLSNGIPKFCPHCGKPFQGVPL | not soluble
22 | AIAAHVSSETQDVSPKDELTASEASTRSPLCEHTFPGDSDLRSMIEEHAFQVLSQGSLLESPSYTVCVSEPDKDDDFLSLNFPRKLWKIVESDQFKSISWDENGTCIVINEELFKKEILETKAPYRIFQTDAIKSFVRQLNLYGFSKIQQNFQRSAFLATFLSEEKESSVLSKLHVFVFHHSLFGATFGEHHFQPCPLPSGNKAPISTWSGDSWLL | soluble
23 | MGSDKIHHHHHHMKSLGRHLVAEFYECDREVLDNVQLIEQEMKQAAYESGATIVTSTFHRFLPYGVSGVVVISESHLTIHTWPEYGYAAIDLFTCGEDVDPWKAFEHLKKALKAKRVHVVEHERGRYDEIGIPEDSPHKAAV | soluble
